Earlier results, collected in article PMC8043720.

Biological target: NaV1.7 (Homo sapiens) (UniProt Q15858)
UniProt Q15858, sequence (Q15858 whole entry): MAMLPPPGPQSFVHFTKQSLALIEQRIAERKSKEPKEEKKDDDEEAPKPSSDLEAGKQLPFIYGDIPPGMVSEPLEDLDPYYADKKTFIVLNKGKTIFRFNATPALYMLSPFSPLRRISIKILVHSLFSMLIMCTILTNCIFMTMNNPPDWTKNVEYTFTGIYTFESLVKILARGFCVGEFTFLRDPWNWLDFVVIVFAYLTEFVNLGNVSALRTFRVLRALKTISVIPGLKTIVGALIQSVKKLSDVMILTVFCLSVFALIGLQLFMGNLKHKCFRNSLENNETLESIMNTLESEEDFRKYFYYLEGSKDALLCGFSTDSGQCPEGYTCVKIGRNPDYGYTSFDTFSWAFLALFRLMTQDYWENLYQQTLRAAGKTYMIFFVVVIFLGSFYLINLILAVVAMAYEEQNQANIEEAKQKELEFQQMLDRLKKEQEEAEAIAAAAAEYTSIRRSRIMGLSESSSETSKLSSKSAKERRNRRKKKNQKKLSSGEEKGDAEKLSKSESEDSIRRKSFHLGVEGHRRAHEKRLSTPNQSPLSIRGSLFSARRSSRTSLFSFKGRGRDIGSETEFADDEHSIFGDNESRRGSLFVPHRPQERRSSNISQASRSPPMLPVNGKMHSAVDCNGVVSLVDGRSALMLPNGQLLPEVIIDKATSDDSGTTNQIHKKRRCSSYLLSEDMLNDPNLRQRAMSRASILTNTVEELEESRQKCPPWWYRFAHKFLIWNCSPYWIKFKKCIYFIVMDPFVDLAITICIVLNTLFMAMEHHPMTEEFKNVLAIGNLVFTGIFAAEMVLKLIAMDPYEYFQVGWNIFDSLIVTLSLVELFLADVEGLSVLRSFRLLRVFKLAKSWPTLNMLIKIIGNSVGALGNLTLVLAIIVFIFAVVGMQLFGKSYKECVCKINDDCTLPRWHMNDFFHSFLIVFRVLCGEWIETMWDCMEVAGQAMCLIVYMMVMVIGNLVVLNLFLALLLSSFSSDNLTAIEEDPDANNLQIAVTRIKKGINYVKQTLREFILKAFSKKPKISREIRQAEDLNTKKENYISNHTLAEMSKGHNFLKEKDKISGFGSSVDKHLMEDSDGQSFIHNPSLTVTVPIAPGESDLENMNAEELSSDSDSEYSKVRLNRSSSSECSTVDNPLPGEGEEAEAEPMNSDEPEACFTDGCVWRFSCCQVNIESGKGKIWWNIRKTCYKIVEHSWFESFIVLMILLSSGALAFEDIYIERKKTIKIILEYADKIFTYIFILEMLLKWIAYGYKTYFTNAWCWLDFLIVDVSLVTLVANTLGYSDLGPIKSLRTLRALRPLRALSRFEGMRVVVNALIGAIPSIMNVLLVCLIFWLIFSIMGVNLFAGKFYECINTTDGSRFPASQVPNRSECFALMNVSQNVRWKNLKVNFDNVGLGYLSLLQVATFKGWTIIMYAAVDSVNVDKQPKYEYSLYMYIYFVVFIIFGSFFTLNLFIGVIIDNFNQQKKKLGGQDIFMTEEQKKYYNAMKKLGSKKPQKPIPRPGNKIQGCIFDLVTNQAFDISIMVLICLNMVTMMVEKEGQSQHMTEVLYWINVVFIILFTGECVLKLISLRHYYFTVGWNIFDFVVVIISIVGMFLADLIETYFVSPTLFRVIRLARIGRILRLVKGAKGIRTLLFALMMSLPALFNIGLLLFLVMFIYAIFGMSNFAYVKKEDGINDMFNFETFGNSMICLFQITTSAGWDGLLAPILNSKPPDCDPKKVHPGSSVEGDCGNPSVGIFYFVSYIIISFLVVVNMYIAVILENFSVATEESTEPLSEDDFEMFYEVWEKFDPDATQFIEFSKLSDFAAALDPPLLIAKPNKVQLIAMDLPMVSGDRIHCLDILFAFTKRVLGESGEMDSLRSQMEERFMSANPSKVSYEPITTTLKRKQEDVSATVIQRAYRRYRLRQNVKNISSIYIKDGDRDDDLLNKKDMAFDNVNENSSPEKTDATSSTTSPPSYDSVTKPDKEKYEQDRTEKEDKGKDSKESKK

## HwTx-IV (from UniProt P83303)
  Kd: 26 nM
